Target: Neh2-luciferase fusion protein (human; firefly)

FLAG-labeled Keap1 expressed from an adenovirus
background luminescence of the Neh2-luc reporter cell line (fold decrease): 3.5
